What was measured:
Assay in all cases: cell_activity
TALEN 103104 (synthetic) = details: pair with 103103; K562, 400 ng
TALEN 103074 (synthetic) = details: pair with 103073; K562, 400 ng
TALEN 103054 (synthetic) = details: pair with 103053; K562, 400 ng
TALEN 103085 (synthetic) = details: pair with 103086; K562, 400 ng
TALEN 103087 (synthetic) = details: pair with 103088; K562, 400 ng
TALEN 103064 (synthetic) = details: pair with 103063; K562, 400 ng
TALEN 103090 (synthetic) = details: pair with 103089; K562, 400 ng
TALEN 103093 (synthetic) = details: pair with 103094; K562, 400 ng
TALEN 103079 (synthetic) = details: pair with 103080; K562, 400 ng
TALEN 103098 (synthetic) = details: pair with 103097; K562, 400 ng
TALEN 103049 (synthetic) = details: pair with 103050; K562, 400 ng
TALEN 103068 (synthetic) = details: pair with 103067; K562, 400 ng
TALEN 103105 (synthetic) = details: pair with 103106; K562, 400 ng
TALEN 103103 (synthetic) = details: pair with 103104; K562, 400 ng
TALEN 103077 (synthetic) = details: pair with 103078; K562, 400 ng
TALEN 103058 (synthetic) = details: pair with 103057; K562, 400 ng
TALEN 103073 (synthetic) = details: pair with 103074; K562, 400 ng
TALEN 103067 (synthetic) = details: pair with 103068; K562, 400 ng
TALEN 103071 (synthetic) = details: pair with 103072; K562, 400 ng
TALEN 103052 (synthetic) = details: pair with 103051; K562, 400 ng
TALEN 103082 (synthetic) = details: pair with 103081; K562, 400 ng
TALEN 103051 (synthetic) = details: pair with 103052; K562, 400 ng
[1] = tested on: SBS55254 ZFN (TCRA) (synthetic); details: pair with 55248; T cells, TRAC 180, day 10
TALEN 103066 (synthetic) = details: pair with 103065; K562, 400 ng
TALEN 103056 (synthetic) = details: pair with 103055; K562, 400 ng
TALEN 103101 (synthetic) = details: pair with 103102; K562, 400 ng
TALEN 103057 (synthetic) = details: pair with 103058; K562, 400 ng
TALEN 103055 (synthetic) = details: pair with 103056; K562, 400 ng
TALEN 103094 (synthetic) = details: pair with 103093; K562, 400 ng
TALEN 103097 (synthetic) = details: pair with 103098; K562, 400 ng
TALEN 103099 (synthetic) = details: pair with 103100; K562, 400 ng
TALEN 103088 (synthetic) = details: pair with 103087; K562, 400 ng
TALEN 103069 (synthetic) = details: pair with 103070; K562, 400 ng
TALEN 103050 (synthetic) = details: pair with 103049; K562, 400 ng
TALEN 103076 (synthetic) = details: pair with 103075; K562, 400 ng
TALEN 103092 (synthetic) = details: pair with 103091; K562, 400 ng
TALEN 103081 (synthetic) = details: pair with 103082; K562, 400 ng
TALEN 103100 (synthetic) = details: pair with 103099; K562, 400 ng
TALEN 103062 (synthetic) = details: pair with 103061; K562, 400 ng
TALEN 103053 (synthetic) = details: pair with 103054; K562, 400 ng
TALEN 103096 (synthetic) = details: pair with 103095; K562, 400 ng
TALEN 103061 (synthetic) = details: pair with 103062; K562, 400 ng
TALEN 103091 (synthetic) = details: pair with 103092; K562, 400 ng
TALEN 103086 (synthetic) = details: pair with 103085; K562, 400 ng
TALEN 103095 (synthetic) = details: pair with 103096; K562, 400 ng
TALEN 103065 (synthetic) = details: pair with 103066; K562, 400 ng
TALEN 103075 (synthetic) = details: pair with 103076; K562, 400 ng
TALEN 103084 (synthetic) = details: pair with 103083; K562, 400 ng
TALEN 103089 (synthetic) = details: pair with 103090; K562, 400 ng
TALEN 103072 (synthetic) = details: pair with 103071; K562, 400 ng
TALEN 103083 (synthetic) = details: pair with 103084; K562, 400 ng
TALEN 103070 (synthetic) = details: pair with 103069; K562, 400 ng
TALEN 103063 (synthetic) = details: pair with 103064; K562, 400 ng
TALEN 103102 (synthetic) = details: pair with 103101; K562, 400 ng

Sequence: ATACTCATCTTTTTCAGTGGG (double strand) [TALEN 103104 site]
- activity (TALEN 103104 (synthetic)): 44.9 % indel

Sequence: ATAGCAATTCAGGAAATTTGA (double strand) [TALEN 103074 site]
- activity (TALEN 103074 (synthetic)): 3 % indel

Sequence: ATAGCCTCCAGGCCAGAAAGA (double strand) [TALEN 103054 site]
- activity (TALEN 103054 (synthetic)): 32.4 % indel

Sequence: ATCCATCCGACATTGAAGTTG (double strand) [TALEN 103085 site]
- activity (TALEN 103085 (synthetic)): 3.9 % indel

Sequence: ATCCGACATTGAAGTTGACTT (double strand) [TALEN 103087 site]
- activity (TALEN 103087 (synthetic)): 10.5 % indel

Sequence: ATGACGTGAGTAAACCTGAAT (double strand) [TALEN 103064 site]
- activity (TALEN 103064 (synthetic)): 14.8 % indel

Sequence: ATGCTCCACTTTTTCAATTCT (double strand) [TALEN 103090 site]
- activity (TALEN 103090 (synthetic)): 16.1 % indel

Sequence: ATGGAGAGAGAATTGAAAAAG (double strand) [TALEN 103093 site]
- activity (TALEN 103093 (synthetic)): 20.2 % indel

Sequence: ATGTGTCTGGGTTTCATCCAT (double strand) [TALEN 103079 site]
- activity (TALEN 103079 (synthetic)): 42.3 % indel

Sequence: ATTCAGTGTAGTACAAGAGAT (double strand) [TALEN 103098 site]
- activity (TALEN 103098 (synthetic)): 52 % indel

Sequence: ATTCGGGCCGAGATGTCTCGC (double strand) [TALEN 103049 site]
- activity (TALEN 103049 (synthetic)): 19.5 % indel

Sequence: ATTCTCTGCTGGATGACGTGA (double strand) [TALEN 103068 site]
- activity (TALEN 103068 (synthetic)): 49.3 % indel

Sequence: CTACACTGAATTCACCCCCAC (double strand) [TALEN 103105 site]
- activity (TALEN 103105 (synthetic)): 14.2 % indel

Sequence: CTATCTCTTGTACTACACTGA (double strand) [TALEN 103103 site]
- activity (TALEN 103103 (synthetic)): 44.9 % indel

Sequence: CTATGTGTCTGGGTTTCATCC (double strand) [TALEN 103077 site]
- activity (TALEN 103077 (synthetic)): 17.1 % indel

Sequence: CTCACGCTGGATAGCCTCCAG (double strand) [TALEN 103058 site]
- activity (TALEN 103058 (synthetic)): 46.2 % indel

Sequence: CTCACGTCATCCAGCAGAGAA (double strand) [TALEN 103073 site]
- activity (TALEN 103073 (synthetic)): 3 % indel

Sequence: CTCAGGTACTCCAAAGATTCA (double strand) [TALEN 103067 site]
- activity (TALEN 103067 (synthetic)): 49.3 % indel

Sequence: CTCCAAAGATTCAGGTTTACT (double strand) [TALEN 103071 site]
- activity (TALEN 103071 (synthetic)): 13.3 % indel

Sequence: CTCCAGGCCAGAAAGAGAGAG (double strand) [TALEN 103052 site]
- activity (TALEN 103052 (synthetic)): 63.8 % indel

Sequence: CTCCATTCTTCAGTAAGTCAA (double strand) [TALEN 103082 site]
- activity (TALEN 103082 (synthetic)): 27.5 % indel

Sequence: CTCCGTGGCCTTAGCTGTGCT (double strand) [TALEN 103051 site]
- activity (TALEN 103051 (synthetic)): 63.8 % indel

Sequence: CTCCTGAAAGTGGCCGGGTTTAATCTGC (double strand) [TCRA 55254 site]
- activity [1]: 66 % indel

Sequence: CTCTGCTGGATGACGTGAGTA (double strand) [TALEN 103066 site]
- activity (TALEN 103066 (synthetic)): 41.2 % indel

Sequence: CTGGATAGCCTCCAGGCCAGA (double strand) [TALEN 103056 site]
- activity (TALEN 103056 (synthetic)): 25.1 % indel

Sequence: CTGGTCTTTCTATCTCTTGTA (double strand) [TALEN 103101 site]
- activity (TALEN 103101 (synthetic)): 15.5 % indel

Sequence: CTGTGCTCGCGCTACTCTCTC (double strand) [TALEN 103057 site]
- activity (TALEN 103057 (synthetic)): 46.2 % indel

Sequence: CTTAGCTGTGCTCGCGCTACT (double strand) [TALEN 103055 site]
- activity (TALEN 103055 (synthetic)): 25.1 % indel

Sequence: CTTGCTGAAAGACAAGTCTGA (double strand) [TALEN 103094 site]
- activity (TALEN 103094 (synthetic)): 20.2 % indel

Sequence: CTTGTCTTTCAGCAAGGACTG (double strand) [TALEN 103097 site]
- activity (TALEN 103097 (synthetic)): 52 % indel

Sequence: CTTTCAGCAAGGACTGGTCTT (double strand) [TALEN 103099 site]
- activity (TALEN 103099 (synthetic)): 15.3 % indel

Sequence: CTTTTTCAATTCTCTCTCCAT (double strand) [TALEN 103088 site]
- activity (TALEN 103088 (synthetic)): 10.5 % indel

Sequence: GTACTCCAAAGATTCAGGTTT (double strand) [TALEN 103069 site]
- activity (TALEN 103069 (synthetic)): 27.9 % indel

Sequence: GTAGCGCGAGCACAGCTAAGG (double strand) [TALEN 103050 site]
- activity (TALEN 103050 (synthetic)): 19.5 % indel

Sequence: GTCAACTTCAATGTCGGATGG (double strand) [TALEN 103076 site]
- activity (TALEN 103076 (synthetic)): 1.5 % indel

Sequence: GTCTGAATGCTCCACTTTTTC (double strand) [TALEN 103092 site]
- activity (TALEN 103092 (synthetic)): 48.5 % indel

Sequence: GTCTGGGTTTCATCCATCCGA (double strand) [TALEN 103081 site]
- activity (TALEN 103081 (synthetic)): 27.5 % indel

Sequence: GTGAATTCAGTGTAGTACAAG (double strand) [TALEN 103100 site]
- activity (TALEN 103100 (synthetic)): 15.3 % indel

Sequence: GTGAGTAAACCTGAATCTTTG (double strand) [TALEN 103062 site]
- activity (TALEN 103062 (synthetic)): 22.9 % indel

Sequence: GTGGCCTTAGCTGTGCTCGCG (double strand) [TALEN 103053 site]
- activity (TALEN 103053 (synthetic)): 32.4 % indel

Sequence: GTGTAGTACAAGAGATAGAAA (double strand) [TALEN 103096 site]
- activity (TALEN 103096 (synthetic)): 42 % indel

Sequence: GTGTCTTTTCCCGATATTCCT (double strand) [TALEN 103061 site]
- activity (TALEN 103061 (synthetic)): 22.9 % indel

Sequence: GTTGACTTACTGAAGAATGGA (double strand) [TALEN 103091 site]
- activity (TALEN 103091 (synthetic)): 48.5 % indel

Sequence: TTCAATTCTCTCTCCATTCTT (double strand) [TALEN 103086 site]
- activity (TALEN 103086 (synthetic)): 3.9 % indel

Sequence: TTCAGACTTGTCTTTCAGCAA (double strand) [TALEN 103095 site]
- activity (TALEN 103095 (synthetic)): 42 % indel

Sequence: TTCCTCAGGTACTCCAAAGAT (double strand) [TALEN 103065 site]
- activity (TALEN 103065 (synthetic)): 41.2 % indel

Sequence: TTCCTGAATTGCTATGTGTCT (double strand) [TALEN 103075 site]
- activity (TALEN 103075 (synthetic)): 1.5 % indel

Sequence: TTCTCTCTCCATTCTTCAGTA (double strand) [TALEN 103084 site]
- activity (TALEN 103084 (synthetic)): 32.2 % indel

Sequence: TTGAAGTTGACTTACTGAAGA (double strand) [TALEN 103089 site]
- activity (TALEN 103089 (synthetic)): 16.1 % indel

Sequence: TTGACTTTCCATTCTCTGCTG (double strand) [TALEN 103072 site]
- activity (TALEN 103072 (synthetic)): 13.3 % indel

Sequence: TTTCATCCATCCGACATTGAA (double strand) [TALEN 103083 site]
- activity (TALEN 103083 (synthetic)): 32.2 % indel

Sequence: TTTCCATTCTCTGCTGGATGA (double strand) [TALEN 103070 site]
- activity (TALEN 103070 (synthetic)): 27.9 % indel

Sequence: TTTTCCCGATATTCCTCAGGT (double strand) [TALEN 103063 site]
- activity (TALEN 103063 (synthetic)): 14.8 % indel

Sequence: TTTTTCAGTGGGGGTGAATTC (double strand) [TALEN 103102 site]
- activity (TALEN 103102 (synthetic)): 15.5 % indel
